Among the data in paper PMC4341974 (Science translational medicine, 2014) are percent decrease of B5 binding to β8-expressing HT1080 cells and Kd values, retold here.

In experiment [1] the target is integrin αvβ8 on β8-expressing HT1080 cells (wild-type β8) (human (endogenous in HT1080) | human) (UniProt P06756). The experiment is described as follows: flow cytometry on cells. In general terms: In flow cytometry, cells or beads pass a laser one at a time.
Experiment [2] concerns the target T1, integrin αvβ8 (construct of the affinity and cross-competition measurements, not told) (Homo sapiens, UniProt P06756;P26012). The experiment is described as follows: flow cytometry on cells.
In experiment [3] the target is T1, integrin αvβ8 (construct of the …).

Where two headings read alike, the source gives them in different places.

T1 sequence (P06756 31-1048, chain 1 of 2): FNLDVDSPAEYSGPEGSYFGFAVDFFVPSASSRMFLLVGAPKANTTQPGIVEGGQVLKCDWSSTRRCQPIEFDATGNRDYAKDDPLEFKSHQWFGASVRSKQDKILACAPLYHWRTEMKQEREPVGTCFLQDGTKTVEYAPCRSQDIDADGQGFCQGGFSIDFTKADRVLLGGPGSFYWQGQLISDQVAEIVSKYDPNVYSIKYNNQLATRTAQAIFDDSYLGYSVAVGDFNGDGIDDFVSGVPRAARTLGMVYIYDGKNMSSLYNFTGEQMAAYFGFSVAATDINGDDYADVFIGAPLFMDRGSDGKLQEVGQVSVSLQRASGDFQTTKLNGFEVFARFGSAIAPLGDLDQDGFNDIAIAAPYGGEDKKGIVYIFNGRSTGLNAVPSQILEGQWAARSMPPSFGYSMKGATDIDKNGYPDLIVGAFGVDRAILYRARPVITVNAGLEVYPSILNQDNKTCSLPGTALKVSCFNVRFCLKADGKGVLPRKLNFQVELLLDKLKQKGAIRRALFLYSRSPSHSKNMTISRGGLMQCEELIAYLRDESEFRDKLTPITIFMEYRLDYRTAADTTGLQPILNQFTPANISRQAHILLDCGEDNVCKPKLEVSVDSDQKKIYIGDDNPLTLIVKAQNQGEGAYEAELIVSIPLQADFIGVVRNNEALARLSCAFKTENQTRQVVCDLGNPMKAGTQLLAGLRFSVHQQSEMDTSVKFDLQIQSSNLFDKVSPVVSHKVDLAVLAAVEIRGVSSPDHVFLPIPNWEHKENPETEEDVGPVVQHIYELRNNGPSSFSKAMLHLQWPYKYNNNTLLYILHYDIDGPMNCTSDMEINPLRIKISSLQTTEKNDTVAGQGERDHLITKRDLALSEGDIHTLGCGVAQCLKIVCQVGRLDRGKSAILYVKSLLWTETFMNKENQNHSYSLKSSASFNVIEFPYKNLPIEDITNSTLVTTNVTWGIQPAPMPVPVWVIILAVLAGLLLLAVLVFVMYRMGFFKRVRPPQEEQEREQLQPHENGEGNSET
T1 sequence (P26012 43-769, chain 2 of 2): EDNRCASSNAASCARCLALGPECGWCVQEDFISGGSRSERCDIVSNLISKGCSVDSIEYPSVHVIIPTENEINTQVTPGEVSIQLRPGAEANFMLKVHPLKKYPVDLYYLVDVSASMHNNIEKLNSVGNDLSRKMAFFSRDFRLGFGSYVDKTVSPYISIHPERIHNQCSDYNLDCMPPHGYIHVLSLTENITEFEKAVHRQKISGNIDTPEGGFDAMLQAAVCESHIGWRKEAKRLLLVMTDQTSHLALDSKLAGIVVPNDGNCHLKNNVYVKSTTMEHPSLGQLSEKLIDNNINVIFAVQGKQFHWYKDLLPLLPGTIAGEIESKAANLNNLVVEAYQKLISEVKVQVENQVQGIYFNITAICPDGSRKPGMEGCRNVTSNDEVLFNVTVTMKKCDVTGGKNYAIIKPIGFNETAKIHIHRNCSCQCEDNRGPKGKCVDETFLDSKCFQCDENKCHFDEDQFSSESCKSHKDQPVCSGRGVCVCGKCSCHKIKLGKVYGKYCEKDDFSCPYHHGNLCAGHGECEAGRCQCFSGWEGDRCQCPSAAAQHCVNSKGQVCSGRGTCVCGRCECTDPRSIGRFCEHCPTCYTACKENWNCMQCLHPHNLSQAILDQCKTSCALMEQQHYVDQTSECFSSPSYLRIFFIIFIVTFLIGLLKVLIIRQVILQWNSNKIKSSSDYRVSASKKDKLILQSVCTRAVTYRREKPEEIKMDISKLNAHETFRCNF
integrin αvβ8 on β8-expressing HT1080 cells (wild-type β8) (human (endogenous in HT1080) | human), sequence (P06756 31-1048, chain 1 of 2): as the sequence (P06756 31-1048, chain 1 of 2) above
integrin αvβ8 on β8-expressing HT1080 cells (wild-type β8) (human (endogenous in HT1080) | human), sequence (P26012 43-769, chain 2 of 2, further chain): as the sequence (P26012 43-769, chain 2 of 2) above

Molecule “latency-associated peptide (from UniProt P01137 30-278) (ligand)” came in with a percent decrease of B5 binding to β8-expressing HT1080 cells in experiment [1] of 29%.

B1: 37E1 single-chain antibody fragment (scFv) on yeast (scFv, V domains shown)
VH: EVQLVESGGGLVQPGGSLNLSCAASGFVFSRYWMSWVRQAPGKGLEWIGEINPDSSTINYTSSLKDKFIISRDNAKNTLYLQMNKVRSEDTALYYCACLITTEDYWGQGTSVTVSS
VL: QIVLTQSPSSMYASLGERVTIPCKASQDINSYLSWFQQKPGKSPKTLIYRANRLVDGVPSRFSGSGSGQDYSLTISSLEYEDMGIYYCLQYDEFPYTFGGGTKLEIK
As for B1, binding in experiment [2] was characterised by a dissociation constant (Kd) of 118 nM.

B2: B5 single-chain antibody fragment (scFv) on yeast (scFv, V domains shown)
VH: EVQLVESGGGLVQPGGSLNLSCAVSGFVFSRYWMSWVRQAPGKGLEWIGEINPDSSTINYTSSLKDKFIISRDNAKNTLYLQMNKVRSEDTALYYCACLITTEDYWGQGTSVTVSS
VL: QIVLTQSPSSMYASLGERVTIPCKASQDINSYLSWFQQKPGKSPKTLIYYANRLVDGVPSRFSGSGSGQDYSLTISSLEYEDMGIYYCLQYDEFPYTFGGGTKLEIK
As for B2, the affinity in experiment [2], expressed as Kd, was 15.4 nM.

B3: B5 intact IgG (antibody, V domains shown)
VH: EVQLVESGGGLVQPGGSLNLSCAVSGFVFSRYWMSWVRQAPGKGLEWIGEINPDSSTINYTSSLKDKFIISRDNAKNTLYLQMNKVRSEDTALYYCACLITTEDYWGQGTSVTVSS
VL: QIVLTQSPSSMYASLGERVTIPCKASQDINSYLSWFQQKPGKSPKTLIYYANRLVDGVPSRFSGSGSGQDYSLTISSLEYEDMGIYYCLQYDEFPYTFGGGTKLEIK
As for B3, the dissociation constant (Kd) (as a rule, the equilibrium constant for the complex coming apart) in experiment [3] came out at 0.54 nM.
